Data reported in paper PMC9352680, “A comprehensive thermodynamic model for RNA binding by the Saccharomyces cerevisiae Pumilio protein PUF4”.

Molecular target: T1, PUF4 RNA-binding domain (Saccharomyces cerevisiae, UniProt P25339 537-888)
T1 sequence: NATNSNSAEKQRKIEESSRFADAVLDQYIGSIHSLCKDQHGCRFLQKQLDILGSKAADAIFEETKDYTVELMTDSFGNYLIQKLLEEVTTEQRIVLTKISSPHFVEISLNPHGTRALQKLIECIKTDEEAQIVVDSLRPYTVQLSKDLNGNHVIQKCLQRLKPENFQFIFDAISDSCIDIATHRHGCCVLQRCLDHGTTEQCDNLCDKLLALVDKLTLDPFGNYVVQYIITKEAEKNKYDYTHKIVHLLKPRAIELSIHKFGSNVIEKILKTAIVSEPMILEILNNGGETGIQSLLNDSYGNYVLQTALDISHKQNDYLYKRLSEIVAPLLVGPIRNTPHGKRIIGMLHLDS
Test: Mg; RNA-MaP; 20 mM Na-HEPES pH 7.4, 30 mM KOAc, 0.75 mM MgCl2, 0.1% Tween-20, 5% glycerol, 0.1 mg/mL BSA, 2 mM DTT; 25 C; 0.0125-409.6 nM protein
Conditions: tags: N-His6-TEV cleaved; C-SNAP kept, Cy3B-labelled; label: tethered on chip by stalled RNA polymerase

## UCUCUUUAUGUAUAUAUGUCUCUU (ssRNA) [Id_ii_S1_P3E.2_K3.1_C3.2_[C-2T]_[T-1A]_H3.1_A3.1_F3.1_T3.2_[A10G]]
  Kd: 9.53 nM

## UCUCUUUAUGUAUAUAGCUCUCUU (ssRNA) [Id_ii_S1_P3E.2_K3.1_C3.2_[C-2T]_[T-1A]_H3.1_A3.1_F3.1_T3.2_[T9G]_[A10C]]
  Kd: 6.81 nM

## UCUCUUUGUGUAUAUAUCUCUCUU (ssRNA) [Id_ii_S1_P3E.2_K3.1_C3.2_[C-2T]_[T-1G]_H3.1_A3.1_F3.1_T3.2_[A10C]]
  Kd: 7.14 nM

## UCUCUUUGUGUAUAUAUGUCUCUU (ssRNA) [Id_ii_S1_P3E.2_K3.1_C3.2_[C-2T]_[T-1G]_H3.1_A3.1_F3.1_T3.2_[A10G]]
  Kd: 8.9 nM

## UCUCUUUCUGUAUAUAACUCUCUU (ssRNA) [Id_ii_S1_P3E.2_K3.1_C3.2_[C-2T]_[T-1C]_H3.1_A3.1_F3.1_T3.2_[T9A]_[A10C]]
  Kd: 5.55 nM

## UCUCUUUAUGUAUAUACUUCUCUU (ssRNA) [Id_ii_S1_P3E.2_K3.1_C3.2_[C-2T]_[T-1A]_H3.1_A3.1_F3.1_T3.2_[T9C]_[A10T]]
  Kd: 15.1 nM

## UCUCUUUGUGUAUAUAUUUCUCUU (ssRNA) [Id_ii_S1_P3E.2_K3.1_C3.2_[C-2T]_[T-1G]_H3.1_A3.1_F3.1_T3.2_[A10T]]
  Kd: 8.9 nM

## UCUCUUUAUGUAUAUAUUUCUCUU (ssRNA) [Id_ii_S1_P3E.2_K3.1_C3.2_[C-2T]_[T-1A]_H3.1_A3.1_F3.1_T3.2_[A10T]]
  Kd: 9.19 nM

## UCUCUUUCUGUAUAUAGUUCUCUU (ssRNA) [Id_ii_S1_P3E.2_K3.1_C3.2_[C-2T]_[T-1C]_H3.1_A3.1_F3.1_T3.2_[T9G]_[A10T]]
  Kd: 3.7 nM

## UCUCUUACUGUAUAUAUUUCUCUU (ssRNA) [Id_ii_S1_P3E.2_K3.1_C3.2_[C-2A]_[T-1C]_H3.1_A3.1_F3.1_T3.2_[A10T]]
  Kd: 10.8 nM

## UCUCUUAGUGUAUAUAUCUCUCUU (ssRNA) [Id_ii_S1_P3E.2_K3.1_C3.2_[C-2A]_[T-1G]_H3.1_A3.1_F3.1_T3.2_[A10C]]
  Kd: 13.4 nM

## UCUCUUUAUGUAUAUAGUUCUCUU (ssRNA) [Id_ii_S1_P3E.2_K3.1_C3.2_[C-2T]_[T-1A]_H3.1_A3.1_F3.1_T3.2_[T9G]_[A10T]]
  Kd: 6.42 nM

## UCUCUUUUUGUAUAUAGGUCUCUU (ssRNA) [Id_ii_S1_P3E.2_K3.1_C3.2_[C-2T]_H3.1_A3.1_F3.1_T3.2_[T9G]_[A10G]]
  Kd: 10.7 nM

## UCUCUUUUUGUAUAUACCUCUCUU (ssRNA) [Id_ii_S1_P3E.2_K3.1_C3.2_[C-2T]_H3.1_A3.1_F3.1_T3.2_[T9C]_[A10C]]
  Kd: 12.1 nM

## UCUCUUUCUGUAUAUACGUCUCUU (ssRNA) [Id_ii_S1_P3E.2_K3.1_C3.2_[C-2T]_[T-1C]_H3.1_A3.1_F3.1_T3.2_[T9C]_[A10G]]
  Kd: 17.9 nM

## UCUCUUAGUGUAUAUAUGUCUCUU (ssRNA) [Id_ii_S1_P3E.2_K3.1_C3.2_[C-2A]_[T-1G]_H3.1_A3.1_F3.1_T3.2_[A10G]]
  Kd: 11 nM

## UCUCUUACUGUAUAUACGUCUCUU (ssRNA) [Id_ii_S1_P3E.2_K3.1_C3.2_[C-2A]_[T-1C]_H3.1_A3.1_F3.1_T3.2_[T9C]_[A10G]]
  Kd: 45.4 nM

## UCUCUUUCUGUAUAUACAUCUCUU (ssRNA) [Id_ii_S1_P3E.2_K3.1_C3.2_[C-2T]_[T-1C]_H3.1_A3.1_F3.1_T3.2_[T9C]]
  Kd: 23 nM

## UCUCUUAGUGUAUAUAAAUCUCUU (ssRNA) [Id_ii_S1_P3E.2_K3.1_C3.2_[C-2A]_[T-1G]_H3.1_A3.1_F3.1_T3.2_[T9A]]
  Kd: 14.1 nM

## UCUCUUUUUGUAUAUAACUCUCUU (ssRNA) [Id_ii_S1_P3E.2_K3.1_C3.2_[C-2T]_H3.1_A3.1_F3.1_T3.2_[T9A]_[A10C]]
  Kd: 9.6 nM

## UCUCUUACUGUAUAUAUGUCUCUU (ssRNA) [Id_ii_S1_P3E.2_K3.1_C3.2_[C-2A]_[T-1C]_H3.1_A3.1_F3.1_T3.2_[A10G]]
  Kd: 17.2 nM

## UCUCUUACUGUAUAUAUCUCUCUU (ssRNA) [Id_ii_S1_P3E.2_K3.1_C3.2_[C-2A]_[T-1C]_H3.1_A3.1_F3.1_T3.2_[A10C]]
  Kd: 9.47 nM

## UCUCUUACUGUAUAUACUUCUCUU (ssRNA) [Id_ii_S1_P3E.2_K3.1_C3.2_[C-2A]_[T-1C]_H3.1_A3.1_F3.1_T3.2_[T9C]_[A10T]]
  Kd: 15 nM

## UCUCUUUCUGUAUAUACUUCUCUU (ssRNA) [Id_ii_S1_P3E.2_K3.1_C3.2_[C-2T]_[T-1C]_H3.1_A3.1_F3.1_T3.2_[T9C]_[A10T]]
  Kd: 9.31 nM

## UCUCUUUCUGUAUAUAAAUCUCUU (ssRNA) [Id_ii_S1_P3E.2_K3.1_C3.2_[C-2T]_[T-1C]_H3.1_A3.1_F3.1_T3.2_[T9A]]
  Kd: 8.49 nM

## UCUCUUUCUGUAUUAUCUCUU (ssRNA) [Ib_S1_P4E.1_K4.1_C4.1_H4.1_[G2C]_[A4G]_A4.1_F4.1_T4.1]
  Kd: 25.1 nM

## UCUCUUUAAAUAUUAUCUCUU (ssRNA) [Ib_S1_P4E.1_K4.1_C4.1_H4.1_[G2A]_[T3A]_A4.1_F4.1_T4.1]
  Kd: > 2300 nM

## UCUCUUUAUGUAUAUAUCUCUCUU (ssRNA) [Id_ii_S1_P3E.2_K3.1_C3.2_[C-2T]_[T-1A]_H3.1_A3.1_F3.1_T3.2_[A10C]]
  Kd: 9.65 nM

## UCUCUUUUUGUAUAUAUAUCUCUU (ssRNA) [Id_ii_S1_P3E.2_K3.1_C3.2_[C-2T]_H3.1_A3.1_F3.1_T3.2]
  Kd: 4.57 nM

## UCUCUUUUUGUAUAUAAAUCUCUU (ssRNA) [Id_ii_S1_P3E.2_K3.1_C3.2_[C-2T]_H3.1_A3.1_F3.1_T3.2_[T9A]]
  Kd: 10.5 nM

## UCUCUUUCUGUAUAUAGCUCUCUU (ssRNA) [Id_ii_S1_P3E.2_K3.1_C3.2_[C-2T]_[T-1C]_H3.1_A3.1_F3.1_T3.2_[T9G]_[A10C]]
  Kd: 3.8 nM

## UCUCUUUUUGUAUAUAUUUCUCUU (ssRNA) [Id_ii_S1_P3E.2_K3.1_C3.2_[C-2T]_H3.1_A3.1_F3.1_T3.2_[A10T]]
  Kd: 6.67 nM

## UCUCUUAAUGUAUAUACCUCUCUU (ssRNA) [Id_ii_S1_P3E.2_K3.1_C3.2_[C-2A]_[T-1A]_H3.1_A3.1_F3.1_T3.2_[T9C]_[A10C]]
  Kd: 16.5 nM

## UCUCUUUCUGUAUAUAUCUCUCUU (ssRNA) [Id_ii_S1_P3E.2_K3.1_C3.2_[C-2T]_[T-1C]_H3.1_A3.1_F3.1_T3.2_[A10C]]
  Kd: 5.38 nM

## UCUCUUUUUGUAUAUAUCUCUCUU (ssRNA) [Id_ii_S1_P3E.2_K3.1_C3.2_[C-2T]_H3.1_A3.1_F3.1_T3.2_[A10C]]
  Kd: 7.26 nM

## UCUCUUAGUGUAUAUAAUUCUCUU (ssRNA) [Id_ii_S1_P3E.2_K3.1_C3.2_[C-2A]_[T-1G]_H3.1_A3.1_F3.1_T3.2_[T9A]_[A10T]]
  Kd: 10.1 nM

## UCUCUUAGUGUAUAUAUUUCUCUU (ssRNA) [Id_ii_S1_P3E.2_K3.1_C3.2_[C-2A]_[T-1G]_H3.1_A3.1_F3.1_T3.2_[A10T]]
  Kd: 10 nM

## UCUCUUACUGUAUAUACAUCUCUU (ssRNA) [Id_ii_S1_P3E.2_K3.1_C3.2_[C-2A]_[T-1C]_H3.1_A3.1_F3.1_T3.2_[T9C]]
  Kd: 22.8 nM

## UCUCUUUCUGUAUAUAAUUCUCUU (ssRNA) [Id_ii_S1_P3E.2_K3.1_C3.2_[C-2T]_[T-1C]_H3.1_A3.1_F3.1_T3.2_[T9A]_[A10T]]
  Kd: 4.37 nM

## UCUCUUUUUGUAUAUAGUUCUCUU (ssRNA) [Id_ii_S1_P3E.2_K3.1_C3.2_[C-2T]_H3.1_A3.1_F3.1_T3.2_[T9G]_[A10T]]
  Kd: 4.16 nM

## UCUCUUACUGUAUAUAACUCUCUU (ssRNA) [Id_ii_S1_P3E.2_K3.1_C3.2_[C-2A]_[T-1C]_H3.1_A3.1_F3.1_T3.2_[T9A]_[A10C]]
  Kd: 26.7 nM

## UCUCUUUUUGUAUAUAGCUCUCUU (ssRNA) [Id_ii_S1_P3E.2_K3.1_C3.2_[C-2T]_H3.1_A3.1_F3.1_T3.2_[T9G]_[A10C]]
  Kd: 5.32 nM

## UCUCUUUUUGUAUAUACUUCUCUU (ssRNA) [Id_ii_S1_P3E.2_K3.1_C3.2_[C-2T]_H3.1_A3.1_F3.1_T3.2_[T9C]_[A10T]]
  Kd: 10.2 nM

## UCUCUUUCUGUAUAUAAGUCUCUU (ssRNA) [Id_ii_S1_P3E.2_K3.1_C3.2_[C-2T]_[T-1C]_H3.1_A3.1_F3.1_T3.2_[T9A]_[A10G]]
  Kd: 6.84 nM

## UCUCUUUUCAUAUUAUCUCUU (ssRNA) [Ib_S1_P4E.1_K4.1_C4.1_H4.1_[G2T]_[T3C]_A4.1_F4.1_T4.1]
  Kd: > 2300 nM

## UCUCUUAGUGUAUAUAGUUCUCUU (ssRNA) [Id_ii_S1_P3E.2_K3.1_C3.2_[C-2A]_[T-1G]_H3.1_A3.1_F3.1_T3.2_[T9G]_[A10T]]
  Kd: 6.52 nM

## UCUCUUUAUGUAUAUAACUCUCUU (ssRNA) [Id_ii_S1_P3E.2_K3.1_C3.2_[C-2T]_[T-1A]_H3.1_A3.1_F3.1_T3.2_[T9A]_[A10C]]
  Kd: 13 nM

## UCUCUUUCUGUAUAUAUUUCUCUU (ssRNA) [Id_ii_S1_P3E.2_K3.1_C3.2_[C-2T]_[T-1C]_H3.1_A3.1_F3.1_T3.2_[A10T]]
  Kd: 5.64 nM

## UCUCUUUAUGUAUAUACCUCUCUU (ssRNA) [Id_ii_S1_P3E.2_K3.1_C3.2_[C-2T]_[T-1A]_H3.1_A3.1_F3.1_T3.2_[T9C]_[A10C]]
  Kd: 15.5 nM

## UCUCUUACUGUAUAUAAAUCUCUU (ssRNA) [Id_ii_S1_P3E.2_K3.1_C3.2_[C-2A]_[T-1C]_H3.1_A3.1_F3.1_T3.2_[T9A]]
  Kd: 16.3 nM

## UCUCUUACUGUAUAUACCUCUCUU (ssRNA) [Id_ii_S1_P3E.2_K3.1_C3.2_[C-2A]_[T-1C]_H3.1_A3.1_F3.1_T3.2_[T9C]_[A10C]]
  Kd: 11.9 nM

## UCUCUUUCUCUAUUAUCUCUU (ssRNA) [Ib_S1_P4E.1_K4.1_C4.1_H4.1_[G2C]_[A4C]_A4.1_F4.1_T4.1]
  Kd: > 2300 nM

## UCUCUUUUUGUAUAUAAUUCUCUU (ssRNA) [Id_ii_S1_P3E.2_K3.1_C3.2_[C-2T]_H3.1_A3.1_F3.1_T3.2_[T9A]_[A10T]]
  Kd: 8.27 nM

## UCUCUUAAUGUAUAUAAUUCUCUU (ssRNA) [Id_ii_S1_P3E.2_K3.1_C3.2_[C-2A]_[T-1A]_H3.1_A3.1_F3.1_T3.2_[T9A]_[A10T]]
  Kd: 8.64 nM

## UCUCUUACUGUAUAUAGCUCUCUU (ssRNA) [Id_ii_S1_P3E.2_K3.1_C3.2_[C-2A]_[T-1C]_H3.1_A3.1_F3.1_T3.2_[T9G]_[A10C]]
  Kd: 9.36 nM

## UCUCUUUUUGUAUAUAAGUCUCUU (ssRNA) [Id_ii_S1_P3E.2_K3.1_C3.2_[C-2T]_H3.1_A3.1_F3.1_T3.2_[T9A]_[A10G]]
  Kd: 11.6 nM

## UCUCUUAAUGUAUAUAAAUCUCUU (ssRNA) [Id_ii_S1_P3E.2_K3.1_C3.2_[C-2A]_[T-1A]_H3.1_A3.1_F3.1_T3.2_[T9A]]
  Kd: 20.8 nM

## UCUCUUUUUGUAUUAUCUCUU (ssRNA) [Ib_S1_P4E.1_K4.1_C4.1_H4.1_[G2T]_[A4G]_A4.1_F4.1_T4.1]
  Kd: 25.7 nM
